The record followed here is PMC6196502 (Proceedings of the National Academy of Sciences of the …, 2018).

The data set “solid-state NMR” concerns the molecule itself. The data set is described as follows: solid-state NMR.
Data set [1] concerns the molecule itself. Kind of data set: urea-driven polymer dissolution.

Residue numbers refer to the chain shown, from its start. Numbers in names are those of the source.

B1: segmentally labeled mCherry-hnRNPA2-LC D290V (ligated construct, G280C) (domain or fragment, human, UniProt P22626-2 181-341, looked up)
chain: MQEVQSSRSGRGGNFGFGDSRGGGGNFGPGPGSNFRGGSDGYGSGRGFGDGYNGYGGGPGGGNFGGSPGYGGGRGGYGGGGPGYGNQGGGYGGGYDNYGCGNYGSGNYNVFGNYNQQPSNYGPMKSGNFGGSRNMGGPYGGGNYGPGGSGGSGGYGGRSRY
Take B1: the binding result in “solid-state NMR” was “binds”.

B2: GFP-hnRNPA2-LC D290V (domain or fragment, human, UniProt P22626-2 181-341, looked up)
chain: B1 chain with C100G
Regarding B2, in data set [1], the binding result is “binds”.
